Paper PMC3605791 (Nature structural & molecular biology, 2012)
Substitutions are numbered along the chain they refer to. In names and notes the source's numbering stands.

B1: GSTVAMP7 residues 1–160 (domain or fragment)
chain: MAILFAVVARGTTILAKHAWCGGNFLEVTEQILAKIPSENNKLTYSHGNYLFHYICQDRIVYLCITDDDFERSRAFSFLNEVKKRFQTTYGSRAQTALPYAMNSEFSSVLAAQLKHHSENKSLDKVMETQAQVDELKGIMVRNIDLVAQRGERLELLIDK
B2: VAMP7 CD (1–188) (domain or fragment)
chain: MAILFAVVARGTTILAKHAWCGGNFLEVTEQILAKIPSENNKLTYSHGNYLFHYICQDRIVYLCITDDDFERSRAFSFLNEVKKRFQTTYGSRAQTALPYAMNSEFSSVLAAQLKHHSENKSLDKVMETQAQVDELKGIMVRNIDLVAQRGERLELLIDKTENLVDSSVTFKTTSRNLARAMCMKNIK
B3: VAMP7 D69A E71F S73D (domain or fragment)
chain: B2 chain with D69A, E71F, S73D
B4: VAMP7 R72A (domain or fragment)
chain: B2 chain with R72A

Tests used:
[1] = molecular target: VAMP7 longin domain (Mus musculus) (UniProt P70280); details: cited from earlier work
Varp(658–921)His6 [2] = molecular target: T1, Varp(658–921)His6 (human, UniProt Q96NW4 658-921); test: pull-down
Varp(658–921)His6 [3] = molecular target: T1, Varp(658–921)His6; test: ITC

T1 sequence (Q96NW4 658-921): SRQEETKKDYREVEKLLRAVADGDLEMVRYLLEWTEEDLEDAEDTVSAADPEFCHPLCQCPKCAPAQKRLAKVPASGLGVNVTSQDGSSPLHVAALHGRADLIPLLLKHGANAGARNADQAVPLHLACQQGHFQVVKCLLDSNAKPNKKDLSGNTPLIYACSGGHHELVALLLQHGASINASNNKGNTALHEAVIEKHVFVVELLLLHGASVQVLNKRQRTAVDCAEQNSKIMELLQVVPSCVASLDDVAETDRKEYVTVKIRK

Molecule	Kd (Varp(658–921)His6 [3])	also measured
Varp (construct not stated, KD with Rab38:GTP or Rab32:GTP) (from UniProt Q96NW4 1-1050) (natural protein)		Kd (Rab38:GTP or Rab32:GTP): 2 to 5 µM
Hrb (from UniProt P52594)		Kd [1]: 10 µM
B1		binding result (Varp(658–921)His6 [2]): binds
B2	2.3 µM	
B3	> 300 µM	
B4	> 300 µM	
